Test results from article PMC4462140.

Biological target: T1, myristoylated zGCAP2 (zebrafish), Q90WX3
T1 chain: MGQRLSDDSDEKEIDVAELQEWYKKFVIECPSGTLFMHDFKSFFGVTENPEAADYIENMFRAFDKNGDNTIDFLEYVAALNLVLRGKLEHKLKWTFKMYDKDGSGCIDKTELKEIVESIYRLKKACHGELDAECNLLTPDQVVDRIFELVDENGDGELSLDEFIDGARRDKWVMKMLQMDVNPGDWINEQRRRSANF
Experiment: SEC; analytical size exclusion chromatography of purified myristoylated zGCAPs on a Primaide HPLC system, as described previously (refs 12, 18, 30); Ca2+ dependence tested; data not shown
Conditions: remark: other sources report otherwise

B1: myristoylated zGCAP2, Q90WX3 1-197 (natural protein)
chain: T1 chain
modifications: here or on the partner: N-terminal myristoyl group; N-terminal myristoyl group
percent monomeric form: 80% | stoichiometry N: 2
